Values belong to the binder of their own block, whether it stands above or below them. [ ]: non-standard residue; d: D form. 8x polyethylene glycol‑amino = O-(8x polyethylene glycol-amino)-tyrosine, SITE 45; 9x polyethylene glycol‑azido = O-(9x polyethylene glycol-azido)-tyrosine, SITE 42; Ygp = O-(8x polyethylene glycol-amino)-tyrosine (Tyr, amino-capped PEG8); Yn3 = O-(9x polyethylene glycol-azido)-tyrosine (Tyr, azide-capped PEG9); hSer = N[C@@H](CCO)C(=O)O; Nle = CCCC[C@H](N)C(=O)O
Molecular target: T1, IL-2 receptor βγ complex (human, UniProt P14784 27-551; P31785 23-369)
T1 sequence (looked up) 1: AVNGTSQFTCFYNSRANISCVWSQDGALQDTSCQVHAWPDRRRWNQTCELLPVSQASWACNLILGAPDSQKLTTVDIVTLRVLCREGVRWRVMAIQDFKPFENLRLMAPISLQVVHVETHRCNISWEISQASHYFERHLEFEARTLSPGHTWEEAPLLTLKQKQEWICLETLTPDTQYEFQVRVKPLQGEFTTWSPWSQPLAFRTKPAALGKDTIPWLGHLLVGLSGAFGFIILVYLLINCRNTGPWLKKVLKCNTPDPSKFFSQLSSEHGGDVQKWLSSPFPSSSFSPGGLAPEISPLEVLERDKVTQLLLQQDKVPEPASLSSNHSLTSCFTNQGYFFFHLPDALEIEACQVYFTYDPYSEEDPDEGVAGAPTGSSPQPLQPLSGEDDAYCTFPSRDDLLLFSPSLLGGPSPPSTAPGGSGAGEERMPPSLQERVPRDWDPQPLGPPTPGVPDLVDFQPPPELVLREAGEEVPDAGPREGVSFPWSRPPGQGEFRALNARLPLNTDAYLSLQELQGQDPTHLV
T1 sequence (looked up) 2: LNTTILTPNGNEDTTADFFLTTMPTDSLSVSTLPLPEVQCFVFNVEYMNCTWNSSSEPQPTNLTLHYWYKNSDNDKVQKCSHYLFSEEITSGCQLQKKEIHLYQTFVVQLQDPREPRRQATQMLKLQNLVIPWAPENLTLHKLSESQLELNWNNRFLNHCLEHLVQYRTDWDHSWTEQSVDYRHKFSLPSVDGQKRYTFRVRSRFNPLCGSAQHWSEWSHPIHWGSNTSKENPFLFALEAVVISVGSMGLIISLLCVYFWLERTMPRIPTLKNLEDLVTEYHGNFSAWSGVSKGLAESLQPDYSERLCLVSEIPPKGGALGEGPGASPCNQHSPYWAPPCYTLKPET
Assay: cell-based or functional assay

B1: CMP-313, uPa cleaved molecule (ligand)
chain: APTSSSTKKTQLQLEHLLLDLQKILNGINNYKNPKLTR[Nle]L[hSer]Y(9x polyethylene glycol‑azido)KFY(8x polyethylene glycol‑amino)[Nle]PKKATELKHLQCLEEELKPLEEVL[hSer]LAQSKNFHLRPRDLISNINVIVLELKGSETTF[hSer]CEYADETATIVEFLNRWITFSQSIISTLT
modifications: also: K23 side chain attached to another sequence, m81 after uPa cleavage, product not given here as a sequence
Average EC50, pSTAT5 Assay in NK cells: 81 pM

B3: CMP-314, MMP2 cleaved molecule (ligand)
chain: APTSSSTKKTQLQLEHLLLDLQKILNGINNYKNPKLTR[Nle]L[hSer]Y(9x polyethylene glycol‑azido)KFY(8x polyethylene glycol‑amino)[Nle]PKKATELKHLQCLEEELKPLEEVL[hSer]LAQSKNFHLRPRDLISNINVIVLELKGSETTF[hSer]CEYADETATIVEFLNRWITFSQSIISTLT
modifications: also: K23 side chain attached to another sequence, m85 after MMP2 cleavage, product not given here as a sequence
Average EC50, pSTAT5 Assay in NK cells: 40 pM

B4: CMP-313, Matriptase cleaved molecule (ligand)
chain: APTSSSTKKTQLQLEHLLLDLQKILNGINNYKNPKLTR[Nle]L[hSer][Yn3]KF[Ygp][Nle]PKKATELKHLQCLEEELKPLEEVL[hSer]LAQSKNFHLRPRDLISNINVIVLELKGSETTF[hSer]CEYADETATIVEFLNRWITFSQSIISTLT
modifications: also: m81 after matriptase cleavage: Lys23 side-chain branch (cleavable peptide) cut, remnant not given here
Average EC50, pSTAT5 Assay in NK cells: 0.714 nM

B5: CMP-314, uPa cleaved molecule (ligand)
chain: APTSSSTKKTQLQLEHLLLDLQKILNGINNYKNPKLTR[Nle]L[hSer]Y(9x polyethylene glycol‑azido)KFY(8x polyethylene glycol‑amino)[Nle]PKKATELKHLQCLEEELKPLEEVL[hSer]LAQSKNFHLRPRDLISNINVIVLELKGSETTF[hSer]CEYADETATIVEFLNRWITFSQSIISTLT
modifications: also: uPa cleavage product, not given here as a sequence, Lys23 side-chain attachment remnant unknown
Average EC50, pSTAT5 Assay in NK cells: 65 pM

The next lines start with the values.

Average EC50, pSTAT5 Assay in NK cells: 0.369 nM
B2: CMP-315, MMP2 cleaved molecule (ligand)
chain: APTSSSTKKTQLQLEHLLLDLQKILNGINNYKNPKLTR[Nle]L[hSer]Y(9x polyethylene glycol‑azido)KFY(8x polyethylene glycol‑amino)[Nle]PKKATELKHLQCLEEELKPLEEVL[hSer]LAQSKNFHLRPRDLISNINVIVLELKGSETTF[hSer]CEYADETATIVEFLNRWITFSQSIISTLT
modifications: also: K23 side chain attached to another sequence, m89 after MMP2 cleavage, product not given here as a sequence

Average EC50, pSTAT5 Assay in NK cells: 0.117 nM
B6: CMP-314, Matriptase cleaved molecule (ligand)
chain: APTSSSTKKTQLQLEHLLLDLQKILNGINNYKNPKLTR[Nle]L[hSer]Y(9x polyethylene glycol‑azido)KFY(8x polyethylene glycol‑amino)[Nle]PKKATELKHLQCLEEELKPLEEVL[hSer]LAQSKNFHLRPRDLISNINVIVLELKGSETTF[hSer]CEYADETATIVEFLNRWITFSQSIISTLT
modifications: also: matriptase cleavage product, not given here as a sequence, Lys23 side-chain attachment remnant unknown
